Experimental data taken from the supplement of paper PMC9170038.

System: MS2 coat protein
Assay: apparent KD of MS2 coat protein; designed switch direction (-1 OFF switch, 1 ON switch): 1; higher = weaker reporter binding
How it was run: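 Three titration conditions were used: no input, 200 uM small-molecule ligand, and an oligonucleotide input. In each, SNAP-549-labelled MS2 coat protein was raised from 0.7 or 1.5 nM, doubling, to 3 µM over designed RNA switches transcribed on Illumina chips by stalled E. coli RNA polymerase. Curve fits of normalised cluster fluorescence gave values whose per-design median over clusters is the apparent KD.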

[1] = Eterna round: R95, input ligand: microRNA oligo, concentration not stated
[2] = Eterna round: R95, input ligand: FMN 200 uM
[3] = Eterna round: R95, input ligand: none
[4] = input ligand: microRNA oligo, concentration not stated

Sequence | apparent KD of MS2 coat protein [1] [nM] | apparent KD of MS2 coat protein [2] [nM] | apparent KD of MS2 coat protein [3] [nM] | apparent KD of MS2 coat protein (input ligand: FMN 200 uM) [nM] | apparent KD of MS2 coat protein [4] [nM] | apparent KD of MS2 coat protein (input ligand: none) [nM]
AUUAAACAUGAGGAUCACCCAUGUAAUAUUAUGGGAGGAUAUGCGAAUUUAAUUAAUUAAGCAGAAGGCCUAAUUA [Mat - Same State 1 - D101] (puzzle: Same State 1) | 106 |  |  |  |  | 
UAGAGAGGAAGCGAGGAUAUCGUGUGAGGAACAUGAGGAUCACCCAUGUGUGAUGUUGAGAGAGACGAGAAGGCGCAGGAGAUUA [JR_SS2_Sub083] (puzzle: Same State 2) | 150 | 87.5 | 140 |  |  | 
AGUCCAGCCUGAGCUGGACAAAAGCGUGUACAUGAGGAUCACCCAUGUCAUGUACAAGCUUUUUGCUCGUCUUAAUA [Zipper 49 - 6] (puzzle: Sensor for hsa-mir-208a) | 21.2 | 106 | 83.1 |  |  | 
GUUACAUGAGGAUCACCCAUGUGUGUGUGGGAGUGAGUGGCUUAGGAUAUCUAUGAUUUUAGUUAAGAGAAGGGAGAUUGUUGU [SS-NG3-LRO05] (Eterna round: R96, puzzle: Same State NG 3) |  |  |  | 554 | 276 | 328
ACCCAAAGUAUAUGGGAGCAAGCUUUUUAACAUGAGGAUCACCCAUGUACUCGUCUUAUAAGCAGUCGAAAGACUGC [Sensor 100 - 4] (Eterna round: R96, puzzle: Sensor for hsa-mir-208a) |  |  |  | 873 | 13.8 | 940
UGGCUCAGACGAGGAUAUAUGCGAUCACAUGAGGAUCACCCAUGUCUCGAGCUUCGGCUCGAGGCAUAGAAGGUGUCUGAGCCA [SSNG2/4-C2] (Eterna round: R96, puzzle: Same State NG 2) |  |  |  | 40.9 | 83.1 | 145
UUAAUAAUGAUAGGAUAUACAUGAGGAAUUCUCGUAGAAGGAUCAUGACAUGAGGAUCACCCAUGUAUCGCUCGAUAGAGCGUA [Mat - Same State NG 1 - JL mod - D35] (Eterna round: R96, puzzle: Same State NG 1) |  |  |  | 447 | 149 | 326
ACGCAGCUGGGUGAGGAUAUCGGUGGUAAAACAUGAGGAUCACCCAUGUCCGAAGCUCGGACUUCCGAGAAGGCGCCCAACUGCA [Ercelama] (puzzle: Same State 2) | 55.1 | 12.9 | 70.9 |  |  | 
GUGGUCAGACAUGAGGAUCACCCAUGUGGAAUAAAUAACAGACAGGAUAUCCAAUAUAGGAUAUAGGAGAAGGGUCGAUUGGUG (Eterna round: R96, puzzle: Same State NG 3) |  |  |  |  | 56.9 | 
GGUGCCAAAUAAGCCUACAUGAGGAUCACCCAUGUAUGUAGGCAGGAUAUCGUAUGCAAAGCAUACGAGAAGGGCCUAGGCACC [Mat - Same State NG 3 - JL Mod - D63] (Eterna round: R96, puzzle: Same State NG 3) |  |  |  | 18.8 | 23.7 | 41.3
AAGGGAUGAGCGUAGGAUAUAGGAGAAGUGACAUGAGGAUCACCCAUGUAGGAGGAGGGAUGAGACUAGAAGGACGAGGUAGGAG [JR_SS2_Sub060] (puzzle: Same State 2) | 56.7 | 43.6 | 76.8 |  |  | 
GGCCUGUGUCAAGGAUAUGCUACCGUUUCGGUAGCAGAAGGUGAUCACAUGAGGAUCACCCAUGUUUACGCGAACACGCGCGCC (Eterna round: R96, puzzle: Same State NG 1) |  |  |  | 193 | 70.6 | 79.6
UAGUGCAUUAGAGGAUAUUCUUACGACACGAGUAAGACAUGAGGAUCACCCAUGUCGUGGCAUGGGAAGAAGGCUGAUGUGCUA [Omei SS(NG)2 Bv7] (Eterna round: R96, puzzle: Same State NG 2) |  |  |  | 14.4 | 11.1 | 34.7
GAGCCAGUCCGAGGAUAUUCGUAUUAACACAUGAGGAUCACCCAUGUGGGCUCAGAAGAGCCCUGGGAGAAGGCGGGCUGGCUC [SS-NG2-LRO17] (Eterna round: R96, puzzle: Same State NG 2) |  |  |  | 11.8 | 30.9 | 48.4
UGAGCCGGCACUGAGGAUAUUCAUAAUAAAACAUGAGGAUCACCCAUGUAGGCCAGAAGGCCUUGGGAGAAGGCAGGUCGGCUCU [Mat - Same State 2 - Mod of UCT - D70] (puzzle: Same State 2) | 142 | 13.8 | 292 |  |  | 
AAUAUACAUGAGGAUCACCCAUGUUAGUAAAUGACAGGAUAUCGAAUAAAUAAAUAAUAACGAGAAGGGUCUAAUA [JMF's solution 3] (puzzle: Same State 1) | 30.3 | 15.9 | 20.8 |  |  | 

Sequence | apparent KD of MS2 coat protein [1] [nM] | apparent KD of MS2 coat protein [2] [nM] | apparent KD of MS2 coat protein [3] [nM] | apparent KD of MS2 coat protein (input ligand: FMN 200 uM) [nM] | apparent KD of MS2 coat protein [4] [nM] | apparent KD of MS2 coat protein (input ligand: none) [nM]
ACUAGAAGCGGGCAAUAACACAUGAGGAUCACCCAUGUGACACAGGAUAUAACCAGAUCAGAAAGUUAGAAGGGUGAGCCCGCA [Usatbere] (Eterna round: R96, puzzle: Same State NG 3) |  |  |  | 13.2 | 19.9 | 27.4
GGAAUAUUUACAGGAUAUGAGUUGUAAAGUCGAUCAGAAGGGUAGGUGUUUUGCACGGUGUGUUACAUGAGGAUCACCCAUGUU [SameState NG1 #22] (Eterna round: R96, puzzle: Same State NG 1) |  |  |  | 74.1 | 66.2 | 123
GGCCUGUAGACAGGAUAUGGGAAAGGAAGUGUACCAGAAGGGUCAAAGAUAUAGGUGGACAUGAGGAUCACCCAUGUAAUUAAC [PowerStrip SSNG 1.21] (Eterna round: R96, puzzle: Same State NG 1) |  |  |  | 56.6 | 70.5 | 105
AGUCCAGCCUGAGCUGGACAAAAGCAUGUACAUGAGGAUCACCCAUGUUCAUGUACAAGCUUUUUGCUCGUCUUAUC [salish99_208a_r3_058] (puzzle: Sensor for hsa-mir-208a) | 16.6 | 578 | 677 |  |  | 
GAUAAACAUGAGGAUCACCCAUGUAAUAAUAUGGGAGGAUAUCAGAAUGUAUGUAUGUAAUGAGAAGGCCUAAUAG [Mat - Same State 1 - Mod of Eli - D72] (puzzle: Same State 1) | 229 | 76.7 | 391 |  |  | 
UGAAGAUCCAUAGGAUAUCCGACACAUGAGGAUCACCCAUGUCAACCAAACGCAGCUUCGGCCGUGGAGAAGGAUGGAGCUGUG [Eternabot solution 3] (Eterna round: R96, puzzle: Same State NG 2) |  |  |  | 72.4 | 41.5 | 76.4
AGCUAUUAAUCAGGAUAUAGGGACAUGAGGAUCACCCAUGUAUACAUGAUGAAAUGUGAUCACGUCUAGAAGGGAUUACUAACA [SameState NG2 #40] (Eterna round: R96, puzzle: Same State NG 2) |  |  |  | 236 | 299 | 134
CAGCGCUGUCGAGAGGAUAUGCGGUGAUGGACAUGAGGAUCACCCAUGUUAGCGAUAGCAUUACUGUAGAAGGCUCUACAGCUGC [JL-ss2-3.08 ViennaUCT mod] (puzzle: Same State 2) | 24.3 |  |  |  |  | 
UGUUGUAUUACAGGAUAUCUAUUAUAUUUAUUUAGAGAAGGGUAUUCACAUGAGGAUCACCCAUGUAUAUACGAGGAAGUUGUG [JMF's solution 15] (Eterna round: R96, puzzle: Same State NG 1) |  |  |  |  | 36.4 | 
UGUUGUAUUACAGGAUAUCUAUUGUUUUUAGUUAGAGAAGGGUAUUCACAUGAGGAUCACCCAUGUAUAUACGAGGAAGUUGUG [JMF's solution 82] (Eterna round: R96, puzzle: Same State NG 1) |  |  |  | 59.9 | 34.6 | 49.9
GUGAAGAAUUAAGGAUAUCGAGUCAAGAUGUUAAACAUGAGGAUCACCCAUGUGGGUUGCGGUAUCGAGAAGGUAAAUUACAAG [salish99_SSNG2_r04_501] (Eterna round: R96, puzzle: Same State NG 2) |  |  |  | 26.7 | 25.9 | 31.4
AUUUUUAAUGCAGGAUAUGAUUAACAUGAGGAUCACCCAUGUGGUGUUGUGAGUAAGGAGAGUGAUCAGAAGGGCAUUUUUUCU [JMF's solution 88] (Eterna round: R96, puzzle: Same State NG 2) |  |  |  | 340 | 391 | 500
AACGGCAGAUGAGGAUAUACUUGCCAUGCGAGCACGCUCGCUACAUGAGGAUCACCCAUGUAUGGGUAGAAGGCAUCAUGAUAC [Eternabot solution 39] (Eterna round: R96, puzzle: Same State NG 2) |  |  |  | 89.6 | 102 | 243
AGCGAAAGCAGUCACAUGAGGAUCACCCAUGUAUUAACUAUUGAGGAUAUGCAGCGACGGGUGUAGCAGAAGGCAGUGAGAAGG [Eternabot solution 30] (Eterna round: R96, puzzle: Same State NG 3) |  |  |  | 54.4 | 52.1 | 61.1
GUGCAACCGUGUGAGGAUAUCGGUGAAUAAACAUGAGGAUCACCCAUGUCCGAAGCUCGGUUCUCCGAGAAGGCGCACAGUUGCA [Same State 2 - Mod of Erisin v.4] (puzzle: Same State 2) | 116 | 23.8 | 159 |  |  | 
